Test results reported in patent publication US20030157644A1 (MOUNT SINAI SCHOOL OF MEDICINE OF THE CITY UNIVERSITY OF …, published 2003).
Ends that are not written are not given here.

Legend:
phospholipase C-β2 [1] = target: T1, phospholipase C-β2 (human, UniProt Q00722 1-1185, Cascade Blue acetyl azide label on amines, labelling ratio 1:1 (FRET experiment only)); test: cell-based or functional assay
phospholipase C-β2 [2] = target: T1, phospholipase C-β2; test: fluorescence resonance energy transfer, DABMI-peptide and Cascade Blue-PLC-β2, with and without phospholipids
Protocol: The reaction was allowed to proceed for 30 minutes at room temperature before quenching with 5 mM DTT. The final labeling ratios, as determined by absorption, were 1:1 for CB-PLC-β2 and 0.8 for the two DABMI-peptides. Fluorescence spectra were taken on an ISS-PC7 (ISS Champaign, IL) photon counting spectrofluorometer using a 3×3 mm cuvette and exciting at 380 nm and scanning from 400-560 nm.
The stimulation by maximal concentration of peptide was non-additive with Gβγ stimulation (FIG. 5A, upper panel).

T1 sequence (Q00722 other isoform, or with tags, fused parts or gaps limits assumed): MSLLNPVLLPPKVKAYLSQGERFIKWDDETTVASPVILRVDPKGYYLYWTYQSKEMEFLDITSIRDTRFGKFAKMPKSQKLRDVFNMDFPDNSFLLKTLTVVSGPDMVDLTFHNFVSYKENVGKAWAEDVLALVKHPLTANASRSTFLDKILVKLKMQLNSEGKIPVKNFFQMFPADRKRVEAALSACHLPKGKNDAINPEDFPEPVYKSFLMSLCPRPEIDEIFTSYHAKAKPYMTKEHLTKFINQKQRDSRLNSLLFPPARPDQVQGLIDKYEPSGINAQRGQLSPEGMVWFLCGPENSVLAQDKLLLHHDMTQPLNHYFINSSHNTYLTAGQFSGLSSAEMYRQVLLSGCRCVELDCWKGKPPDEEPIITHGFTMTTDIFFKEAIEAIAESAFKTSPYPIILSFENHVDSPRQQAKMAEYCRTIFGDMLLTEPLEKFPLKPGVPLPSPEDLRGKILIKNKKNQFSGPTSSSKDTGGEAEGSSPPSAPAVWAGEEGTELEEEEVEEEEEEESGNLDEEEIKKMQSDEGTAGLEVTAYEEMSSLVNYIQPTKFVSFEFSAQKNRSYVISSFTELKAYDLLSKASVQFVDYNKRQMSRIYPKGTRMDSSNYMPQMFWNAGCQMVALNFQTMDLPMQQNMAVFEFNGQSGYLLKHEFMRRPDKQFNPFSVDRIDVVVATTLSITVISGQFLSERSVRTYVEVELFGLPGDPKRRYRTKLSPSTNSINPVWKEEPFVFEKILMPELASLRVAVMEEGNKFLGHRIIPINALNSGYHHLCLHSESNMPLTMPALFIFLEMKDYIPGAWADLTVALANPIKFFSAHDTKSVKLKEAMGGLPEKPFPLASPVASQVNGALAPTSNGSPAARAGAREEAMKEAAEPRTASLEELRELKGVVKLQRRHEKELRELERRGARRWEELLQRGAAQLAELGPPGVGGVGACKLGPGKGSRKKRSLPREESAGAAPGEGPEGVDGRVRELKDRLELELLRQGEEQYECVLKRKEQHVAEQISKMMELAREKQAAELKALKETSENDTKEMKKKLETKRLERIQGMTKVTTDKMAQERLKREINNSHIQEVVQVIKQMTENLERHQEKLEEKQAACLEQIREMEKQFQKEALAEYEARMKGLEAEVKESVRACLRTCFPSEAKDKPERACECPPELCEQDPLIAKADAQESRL

Row | fold change in affinity of PLC-β2 stimulation against the Gβ 86-105 peptide (phospholipase C-β2 [1]) | binding result (phospholipase C-β2 [2]) | Binder
1 | 5 fold |  | TTNKVHAIPLRRRWVMTCAY [S97,98R Gβ 86-105 peptide]
2 | ~2 fold |  | TTNKVHAIPLRSAWVMTCAY (not fully specified) [Gβ 86-105 peptide with S98 substituted with alanine]
3 |  | no binding | TTNKVHAIPLRSSWVNTCAY (also: DABMI maleimide label in FRET experiment, residue not given here, Synthetic peptide; also called m-TTN) [Gβ 86-105 M101N substituted peptide]
